{
  "source": "patent US20240034796A1",
  "about": "(GENUV, published 2024)",
  "binders": {"B1": {"name": "hybridoma 1G1 antibody (antibody, V domains shown)", "VH": "EVQLQQSGAELVKPGASVKLSCKASGYTFTGYWMHWVKQRPGQGLEWIGMIHPNSDTTTYNEKFKNRATLTVDKSSGTAYMQLSSLTSEDSAVYYCTGTDQAAWFAFWGQGTLVTVSA", "VL": "DIVLTQTPLSLPVSLGDQASISCRSSQNIVHSNGDTYLEWYLQKPGQSPKLLIYKVSKRFSGVPDRFSGSGSGTDFTLKISRVEAEDLGVYYCFQGSHVPWTFGGGTKLEIK", "notes": "Mouse antibody from the hybridoma, used as culture supernatant or Protein G purified; IgG1 reverse primer used for VH); also called 1G1 hybridoma antibody; monoclonal cell (hybridoma) 1G1 antibody"}, "B2": {"name": "chimeric 1G1 antibody (antibody, human IgG4 S228P, kappa, V domains shown)", "VH": "B1 VH", "VL": "DIVLTQTPLSLPVSLGDQASISCRSSQNIVHSNGDTYLEWYLQKPGQSPKLLIYKVSKRFSGVPDRFSGSGSGTDFTLKISRVEAEDLGVYYCFQGSHVPWTFGGGTKLEIKR", "notes": "signal peptide not part of the entries; also called 1G1 chimeric; 1G1-chimeric"}},
  "key": {"[1]": {"target": "T1, human PD-1 expressed on CHO-S cells (human, UniProt Q15116 25-288)", "T1 construct": "CHO-S cells transfected with pCMV3-C-FLAG vector (Sino) holding human PD-1 cDNA; also called cell surface human PD-1; hPD-1", "T1 sequence (Q15116 25-288 limits assumed)": "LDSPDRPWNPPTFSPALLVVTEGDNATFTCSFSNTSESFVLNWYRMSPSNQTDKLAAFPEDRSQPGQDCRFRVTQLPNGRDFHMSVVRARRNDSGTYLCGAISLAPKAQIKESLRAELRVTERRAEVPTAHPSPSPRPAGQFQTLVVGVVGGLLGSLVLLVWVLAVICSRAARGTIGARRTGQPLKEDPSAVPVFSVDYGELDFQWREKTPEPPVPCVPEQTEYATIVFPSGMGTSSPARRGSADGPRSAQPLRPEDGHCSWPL", "assay": "cell-based ELISA on CHO-S cells expressing human PD-1", "protocol": "(§1) To summarize the ELISA analysis, 10,000 CHO-S cells expressing either human PD-1 or mouse PD-1 were coated in a collagen-coated 96-well plate (Thermo scientific) overnight in an incubator at 37° C. The coated cells were fixed with 8% paraformaldehyde at room temperature for 15 minutes.\n(§2) After washing, a secondary antibody was added and incubated overnight at 4° C. […] After washing, TMB substrate (abcam) was added, and the color reaction was stopped with STOP solution (abcam). Absorbance at 450/650 nm was measured using a microplate reader (ThermoFisher)."}, "[2]": {"target": "T2, mouse PD-1 expressed on CHO-S cells (mouse, UniProt Q02242 25-288)", "T2 construct": "whole, on cells; also called cell surface mouse PD-1; mPD-1", "T2 sequence (looked up)": "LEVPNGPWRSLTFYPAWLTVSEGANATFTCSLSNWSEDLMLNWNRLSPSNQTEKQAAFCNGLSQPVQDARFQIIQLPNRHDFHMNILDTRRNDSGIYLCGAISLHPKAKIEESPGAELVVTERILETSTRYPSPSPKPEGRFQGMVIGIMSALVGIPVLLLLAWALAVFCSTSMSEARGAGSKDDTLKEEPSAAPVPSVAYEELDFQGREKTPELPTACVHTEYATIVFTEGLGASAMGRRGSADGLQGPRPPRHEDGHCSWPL", "assay": "cell-based ELISA on CHO-S cells expressing mouse PD-1", "protocol": "as §1, §2"}, "human BTLA protein": {"target": "human BTLA protein (human, UniProt Q7Z6A9 31-157, limits assumed)", "assay": "protein-based ELISA, coated human BTLA, hybridoma supernatant", "protocol": "(§3) Human PD-1, CD28, CTLA-4, ICOS, and BTLA proteins were coated in 96-well plates (Nunc) overnight at 4° C. […] After washing, a secondary antibody was added and incubated at 37° C. for 2 hours. […] After washing, TMB substrate (abcam) was added, and the color reaction was stopped with STOP solution (abcam). Absorbance at 450/650 nm was measured using a microplate reader (ThermoFisher)."}, "human CD28 protein": {"target": "human CD28 protein (human, UniProt P10747 19-152)", "assay": "protein-based ELISA, coated human CD28, hybridoma supernatant", "protocol": "as §3"}, "human ICOS protein": {"target": "T3, human ICOS protein (human, UniProt Q9Y6W8 21-140)", "T3 sequence (looked up)": "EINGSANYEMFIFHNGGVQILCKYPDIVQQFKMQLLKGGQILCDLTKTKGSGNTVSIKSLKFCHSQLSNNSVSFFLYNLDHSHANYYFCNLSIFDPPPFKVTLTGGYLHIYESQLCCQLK", "assay": "protein-based ELISA, coated human ICOS, hybridoma supernatant", "protocol": "as §3"}, "human CTLA-4 protein": {"target": "human CTLA-4 protein (human, UniProt P16410 36-161)", "sequence (P16410 36-161 limits assumed)": "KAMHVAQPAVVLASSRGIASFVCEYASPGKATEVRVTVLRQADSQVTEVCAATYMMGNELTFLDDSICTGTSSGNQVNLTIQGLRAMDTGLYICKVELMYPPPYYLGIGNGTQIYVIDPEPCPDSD", "assay": "protein-based ELISA, coated human CTLA-4, hybridoma supernatant", "protocol": "as §3"}, "[3]": {"target": "T1, human PD-1 expressed on CHO-S cells", "assay": "cell-based ELISA on CHO-S cells expressing human PD-1; EC50 against Keytruda and Opdivo", "protocol": "as §1, §2"}, "[4]": {"target": "T1, human PD-1 expressed on CHO-S cells", "assay": "cell-based ELISA on fixed CHO-S cells expressing human PD-1, hybridoma supernatant", "protocol": "(§4) To summarize the ELISA assay, 10,000 CHO-S cells expressing human or mouse PD-1 were coated in collagen-coated 96-well plates (ThermoFisher) overnight at 37° C. The coated cells were fixed with 8% paraformaldehyde at room temperature for 15 minutes. […] After washing, secondary antibody was added and incubated overnight at 4° C. […] After washing, TMB substrate (abcam) was added, and the color reaction was stopped with STOP solution (abcam). Absorbance at 450/650 nm was measured using a microplate reader (ThermoFisher)."}, "[5]": {"target": "T2, mouse PD-1 expressed on CHO-S cells", "assay": "cell-based ELISA on fixed CHO-S cells expressing mouse PD-1, hybridoma supernatant", "protocol": "as §4"}, "[6]": {"target": "T4, human PD-1 with P130 mutated to alanine (human, UniProt Q15116 25-288, limits assumed)", "T4 construct": "Alanine scanning mutant, expressed and analysed by high-throughput flow cytometry; the construct is not described further", "T4 sequence (Q15116 other isoform, or with tags, fused parts or gaps limits assumed, change not shown)": "as the sequence (Q15116 25-288 limits assumed) above, with P106A counted along it", "assay": "alanine scanning, high-throughput flow cytometry", "from_the_text": "(§5) Selected amino acid residues of PD-1 were mutated to alanine using PCR mutagenesis."}, "[7]": {"target": "T5, human PD-1 with L128 mutated to alanine (human, UniProt Q15116 25-288, limits assumed)", "T5 construct": "Alanine scanning mutant, expressed and analysed by high-throughput flow cytometry; the construct is not described further", "T5 sequence (Q15116 other isoform, or with tags, fused parts or gaps limits assumed, change not shown)": "as the sequence (Q15116 25-288 limits assumed) above, with L104A counted along it", "assay": "alanine scanning, high-throughput flow cytometry", "from_the_text": "as §5"}, "[8]": {"target": "T6, human PD-1 with I126 mutated to alanine (human, UniProt Q15116 25-288, limits assumed)", "T6 construct": "Alanine scanning mutant, expressed and analysed by high-throughput flow cytometry; the construct is not described further", "T6 sequence (Q15116 other isoform, or with tags, fused parts or gaps limits assumed, change not shown)": "as the sequence (Q15116 25-288 limits assumed) above, with I102A counted along it", "assay": "alanine scanning, high-throughput flow cytometry", "from_the_text": "as §5"}, "human PD-1 protein": {"target": "T7, human PD-1 protein (human, UniProt Q15116 25-167, limits assumed)", "T7 construct": "also called human PD-1 antigen", "T7 sequence (Q15116 25-167 limits assumed)": "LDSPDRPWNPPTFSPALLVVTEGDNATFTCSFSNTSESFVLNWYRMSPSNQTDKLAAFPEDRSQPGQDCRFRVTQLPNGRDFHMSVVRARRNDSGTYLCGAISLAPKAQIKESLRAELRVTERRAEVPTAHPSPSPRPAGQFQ", "assay": "SPR, Biacore 8K, antibody captured by anti-human IgG on CM5, human PD-1 as analyte", "protocol": "Anti-human IgG antibody was immobilized on a CM5 chip (Cytiva) via amine coupling. […] Human PD-1 and running buffer at a concentration of 0-100 nM (0, 6.25, 12.5, 25, 50, 100 nM) were flowed onto the sensor chip at a flow rate of 30 μl/min for an association phase of 120 s, which was followed by a dissociation phase of 900 s. The chip was regenerated with glycine at pH 1.5 after each experiment. Association and dissociation curves were drawn using Cytiva evaluation software, and kinetics and affinity values were determined."}},
  "data": [
    {"binder": "B1", "values": [
      {"measurement": "EC50", "setting": "[1]", "value": 28.1, "unit": "pM"},
      {"measurement": "EC50", "setting": "[2]", "value": 31.7, "unit": "pM"},
      {"measurement": "binding result", "setting": "human BTLA protein", "value": "no binding"},
      {"measurement": "binding result", "setting": "human CD28 protein", "value": "no binding"},
      {"measurement": "binding result", "setting": "human ICOS protein", "value": "no binding"},
      {"measurement": "binding result", "setting": "human CTLA-4 protein", "value": "no binding"},
      {"measurement": "fold improved binding activity compared to Keytruda and Opdivo", "setting": "[3]", "value": "~5", "unit": "fold"},
      {"measurement": "EC50 (read off the curve)", "setting": "[4]", "value": "~0.01", "unit": "µg/mL"},
      {"measurement": "EC50 (read off the curve)", "setting": "[5]", "value": "~0.01", "unit": "µg/mL"}
    ]},
    {"binder": "B2", "values": [
      {"measurement": "binding activity relative to the wild-type antigen", "setting": "[6]", "value": "≤ 50", "unit": "%"},
      {"measurement": "binding activity relative to the wild-type antigen", "setting": "[7]", "value": "≤ 50", "unit": "%"},
      {"measurement": "binding activity relative to the wild-type antigen", "setting": "[8]", "value": "≤ 50", "unit": "%"},
      {"measurement": "Kd", "setting": "human PD-1 protein", "value": 3350, "unit": "pM"},
      {"measurement": "koff", "setting": "human PD-1 protein", "value": 0.000749, "unit": "s⁻¹"},
      {"measurement": "kon", "setting": "human PD-1 protein", "value": 223000, "unit": "M⁻¹ s⁻¹"}
    ]}
  ]
}
